The values below are quoted from earlier work in patent publication US11147890B2, “Stimuli-responsive particles encapsulating a gas and methods of use” (Children's Medical Center Corporation, priority 2017, dated 2021).

For this series the following is noted: per gram basis.

Turning to hemoglobin, the oxygen carrying capacity is 0.17 mL/g.
